Test: soluble fraction after stress (log2 fold change); higher = more stays soluble; pooled small domains, quantitative proteomics
Conditions: stress: 75 degC
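Note: 20 min heating vs room temperature control held 20 min.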

Sequence	soluble fraction (log2)
HMTKRKNTEFRQQQIIEAAAKLIFKYGSEHLTVKRIAAQVGISEAAIYRHFTSKKSILSFLLSHIEE	-0.362
HMTKRTVKSVARKIADFNRERHRMPTYEEMLTLLAVRSKSVVHFWMNKLLQEGILEKDESGHLTFV	-0.179
HMTKSSAYLSAEKLINKKQYSDAIVKLNDALVTDSKNADIYNYLGFSHRKLGKMEDAAFFYNKALE	0.0234
HMTLDDSFYQKADEIIANHTKEERSLIPIIQDIQAEYRYLPPELLTYVAKEIGITDARAYSVASFYENFS	-0.521
HMTLDEDYFYYTLKAKEGYYRLYKKLGVDRKIIDSLNPNLKEMGLQVGMVIRVPKSQTSDLSVKNSLLVE	-1.64
HMTLHDLFPQAVEFVSEKEMISTAELQRKLMISYNSAAKIIDQLLHVDFIQKSESAGKYSVLIK	-2.66
HMTLNTQLFTWKKGVRVGEDDQGNIYYRTKDDKRRWVIFTGETEATKVSPDWHGWLHRTWATPPNK	-2.27
HMTLPGQDFIRASQLKELIAKYDKQYYEEGVSDISDAEYDRLYEEYLEFENKYPELKDMADAPTKRV	0.659
HMTLREQISALIKQGKLTQAKLARETGVNGGALSAWINGKYTGNVETVEEPIKHWMALNERK	-0.342
HMTLSVRQRMSQIINKIDVSNFTDFTKLFDINEGRLGVAVTFLAILELLKDTMIDVIQNEEFAPLHIKVSS	0.128
HMTMIIQLDKNITQEQRQFLVEELNRLSISPNFVSTQFTNYIVGIPKKEFDIRLIGNLPGIADIHFV	-1.58
HMTMKVTADILNMRSEASTNSDIVTKLKKDDELKVIEETKDDDGVTWVKVDFNGQVGFVSKEFLG	0.237
HMTMLLEYNVSRSSKWMNKTIMDAEIPDDILIVMIKRNGQVIVPKGSTEILENDILVLSGNNLNEVALG	-3.02
HMTMNYYDILSIKRDATLEEIQKAYKEKSFQFHPDFNKGISDDSMFRIIKEAYETLSDTEKRNQYDASLNK	0.45
HMTMQTAEQESRLEQKLIDLSVGIDRFEGYSRPHGQLIASIADRIGTRLGMAAHDRFYMQQAAL	0.203
HMTNADRFIGEEAMVIKKIDDINNDGQVKIAGQVWSAVSEDKSPLEEGTIVKVIAIRGVKLVVEPVS	-0.369
HMTNALDMMKTMDSDAYTKYQKISKESSNEDRQLNELKYITNWYAGAVKKNPSMVDDYEKQKEADS	0.302
HMTNELTEIFNSIRLTKKQKELLQSNYLSLRETYFLQGKTAFNLKFKNIAGLGKSTKKVLLEFFEESIE	-3.15
HMTNIDIEKSIKNTITANYDDVLNYHNEDDNKTFASGDSRYSFDYDEKTKTLIVFTNSKVDAVFVDGIKKK	0.308
HMTNISDYILEEYYKNVYPNDLNTKRIVIPNKYEEYAGKYTYITIARMVTYEHDAKKALKVLHQQAT	-0.307
HMTNKYSSLVIGTVKTIMEEDQYKNLMGPPLKKEIIKQVDKFTNALPIEFDQNDKDFYVKKILINL	-0.377
HMTNLKALRESKGVSQQTVADYLGITRQAYGNYETGKRQADYAALLRLAAFFGVSVDALLQP	-1.18
HMTNNDIIRRVRYLFNFSDKQVIELFKLANETVSIEHVSGWLKKEEDPTLIEISDRDLAVFLNGLII	0.557
HMTNQEFNEVFKLLLAAYPNTKDKESVATIYFLTIANELTKKEFAEAVVKILKTRKSGFIPQPAEILEVAK	-2.54
HMTNSAGIERFLASGAIDGVGPAMARRIVEHFGTEALRIIESVPHRLREISGIGPKTAEKIASSYMRQ	-1.15
HMTNTDALINRAAKVVEEINPDKNTGRVSIDGDLWRAKSSSGELIEQNKQVIVISIESTIVTVKI	-0.228

Sequence	soluble fraction (log2)
HMTNTWNNIVERNDLFFKKFTNTPFNGKIETYWPNGNLKETGIITDGKKDNLWEYYYENGNPKEVEF	-0.876
HMTNVFSIIGKKALVIKDIDPIHSSGQIKLNGEVWSAETENDEIIKEGSEVEVLKINGVKAIVKLV	-0.664
HMTNVIPKAMAPFNGSTIIADGIKNIKDHIDNLYITVGYKGATLSEHVINKGVSAVFNTTGKGNAWWVYN	0.343
HMTNVLSEQESKLLERMNKAGLNAEITVKKAAQILNLSESAARNVLNRLVGKGYLTVDTSRLPFLFQR	-0.277
HMTNVVSKNKAKEIAMNIINDTVLQGQTAATFKEIVKANGVYVVKIEIQGQEYTSYITKDGKIVFPYGVEV	-1.07
HMTNYSFIVNENFNNKRIDQVVANHYPKISRTKVNKIIKNNLLKLNGSTFNDPSAKVKLGDQIEFENL	0.434
HMTPAKQVSAKAERWIDQLGSSDWEKREEAAAELKKLGGAAKSALEKALKNADPEVASKAEELLEALES	0.19
HMTPATVVIPKVAGQTVAEAKETLKNANFEIGEEKDESSDTVEEGRVIRTDPESGTNRKEGTKINLIVSS	0.0198
HMTPFVINVDRHGAVIINEKTVDIDEAVVLARQERSQGKSILLAGDKKAPYEAIIRVLDALKQAG	-0.758
HMTPNATWQDDAQNLLRDLIQHQPVLVQISAAKRLRDQAEQISRITGGETVTREHVEAAGHALGMGVT	0.209
HMTPNRDDEHLQSLRDYYASNRRIPSLQRIAALLGFSSRSAAVKLMGRLADEGFVERTVDDDAWIPGSRFF	-1.14
HMTPQDYEYLRKLLKDQSGLDLSVDKQYLLESRLVPLSRKAGLAGIPELVQKMKAGSASLTAQVVEAMTT	-0.11
HMTPVFGEEETVLQAAVRGIISDTDQWTMEAEAKSMLNQLGFSDYEEKMAHMSGGQKKRVALVNALLTP	0.116
HMTQDFEPGGQVFSRGEWLTIIRVNKSNGAVSSVTTPNYSFLGYSGTMKVTPDRITDYKAPSAEEAAVAS	-0.451
HMTQGRVTGDGVNVRSQPNTDSAILTRVSTGKVVELISLKDNWYNVVVNGTKGYIRADYVSPYDG	-0.904
HMTQLPEVPVERGMVLEEVQSGWVGAVTRVEKSGGMHVVALEDRRGKSRSFRLGFGFLLEGQPIRLMPPAP	-1.89
HMTRAETPMAFIRAMVEAYTERGLDPNQALRKAQITPSQLKSTNARVTTLQMEWMSETAMREL	-0.292
HMTRDAQLAALERLMDDPSPVVRKAVLKGVQAAGTEGLLWLQQLSKNQTLGPYALALLTELR	-0.72
HMTRNGTVTFFNHDKGYGFIKDVLTQESVFVHINSLSEPINEQNKVSFEIEMGPRGSNAINVKLI	-1.65
HMTRTEYMAQLEKYLKKLPHKEFQEAITFFNEYFDEAGPEKETAIMEELGSPKEAASELITNILNRHI	-0.433
HMTRTISKVAKELAINIETVRFYERRGLIEQPPKPELGYRHYPDETVNRIRFIKRAQELGFTLEEIANLLS	-1.66
HMTRVDALDQLAAIRFSSHIFAEDQDLRMVVVDGQRIGEGDIVRDEIRLEQITETGVIFEYQGERFPIDV	-1.45
HMTRYQHLAMLLEKRIAQGLYRNGERLPSVRSLSAEHGVSISTVQQAYYLLEQKQLIIPQSRSGYYVAPH	-4.46
HMTSEVPVGSNVRIRASTLAGERDFEGTMLPPAGEGLTTLKLVNGYNLSYPSKDVLDIEFLGGAGE	0.14
HMTSHPTHTILDGKVHVFMRDGSPFWWGGFHFKGKYLRTSTKQKNLDSAKTIAQQWYFQKQTEIASGE	-2.85
HMTSKVTVLAVNGRITVSGKEQDETVSVYDTGGRLLYQGESDVINVPRKAMYIVTVSRKSYKVIV	-1.52

Sequence	soluble fraction (log2)
HMTSLAGIERFLASGAIAGVGEAMAHRLVQKFGKETLEIIEKKPSRLTEVAGVGKKTAAKIHASYMEK	-0.344
HMTSLGLEGLVNTTAIATSDLRPSGWALAGERKIFVVSEGEFIDNGDKIRILTVDGNRIVVRKETNK	-0.477
HMTSLTSDEEQIINVLRAEESVYINALATKSKIPLQKLLGLLIQLEFKGLIHSLPGSHYKIV	-0.221
HMTSNIIIVPNVVGMTKEQATAALAAAGLNIKLSGVETTDTAAVAVKQKPSANTKVEEGSVVTVEFDLK	≥ 1.04
HMTSPKSRIVSALLASPSRPEELAMRLGEDILTLMRTLTDFEASGIIQRLPDGRYTPTREYHLGLVDK	-0.12
HMTSPRRLYALIVEHVGKDGVMHRSDVENVLAKVESEMDVDDLLDQLEINGTIIRRQDGTWQLL	-0.716
HMTSRFITTEEGTLYVDADGRKVSGWQTIDGSRYYFDEHGIRQSGTIEVNGETYVLDEDGVL	0.0516
HMTSRWEIGYNVAKKYYDEHGNLDVERAVYDNFELKKWLNTQRYKNSAGTLAEKYKIKLDELGMNWER	-0.214
HMTSSQLYLIEEDMEGERLDAFLAEVIADLSRTAIKDLISNGRVLVDGQARKPSYRVKEGEQVLIHVPEAR	-0.392
HMTSVFQNSDGTWGHLTKTVNPLIYTIEYGRRTGFSSREEAEESYQRSLTSYQDQLSKLKKERD	0.297
HMTSVPGTVVTNANLRGGPGTNYPIVGKAPAGTTVNVVESTADRTWYYLDTGSWIAAFLVKLS	-0.33
HMTSVRVPVKKEIWFWAIKESQRDLNEILARFPKMDKWINQEENPTFNQLEKVAKFLRVPFGYMFLDKPPK	-1.86
HMTTETGTVKWFNEGKGFGFIAPDGGGKDLFAHFKEIQGSGFKTLTENQRVQFEVTQGQKGPQASNIRTL	0.227
HMTTHEQVAILRRELNGLVGAWHHRTGQAHGVTHSKLRKELGGPPAAVASAAQLSARIEKIRQWAT	-0.922
HMTTIAQMTGPQRAAVILLVLGEDHGRTIWQEFDDDEIRIITRAMAELGTVDADEVERLMLDFVGKLSS	-2.67
HMTTIAQNISNYRTRANMTQQQVADKLSVSHHTVSKWELGINTPSVEDMQKLAQVFGVTITELVVD	-0.652
HMTTIHVDPEKISKIIGPGGKTIKKIVEETGAKIDIEEDGRVYIAAVNSEEAAKAIDMINGI	0.0704
HMTTIPAGRQQYILSLIRREGTVTVSRLAQELEVSELTIRRDLDQMAARNLVERTHGGATERR	-1.53
HMTTKEEAAYQAIRSAIIDGELKPGQSVTIRDLASRFDLGRTPITDAMKHLALDGWLETTTGVGTRV	-0.183
HMTTLAADFNSDGRVDIGDLSILAGNWGKSRTNEVDFNKYGDADYNGRIDIIDLSILATQFGQTDNSN	0.321
HMTTLDTVARQLRDRIREQLDPTGEMSDESLLRTIEEAVYRYSSSGHVLTANEKETVIRRIFHSFR	0.042
HMTTMNSADLIKELEKAGWTLRGVKGSHHIYTHPARGGHLSVPHPKKDLGAGLARQLRKQAGL	-0.032
HMTTPAAISKIKKLEEAKRLLATTTYSMKEIAVKLKYKSHTHFGMDFKNNTGMTPAEYRKAIKAKREKQMN	-1.96
HMTTQERVSYSAFINDVETGRVAKVVISGYTIEGTRTNNSSFVTERPYGVDSNLSEVLMQNSVSIEGKA	-0.122
HMTTQVNTVKIQLANGYEMTVLTSKTNVKEILEDNNIILENNEKVTPNIDEEISSNKTIKITDKSN	0.055

Reference: the domain aggregation screens of Martell et al. (2025)
